Source: the supplement of paper PMC10201428
± gives the standard deviation of the averaged measurements.

Columns and labels:
[1] = system: VchCAST RNA-guided transposition machinery (E. coli BL21(DE3) host, lacZ target); assay: relative integration efficiency (T-RL orientation) vs wild-type transposon end (log2 (normalized fold change)); transposon end mutated: right end (5 bp flank + 75 bp right end); higher = more efficient transposition
Description: (§1)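 Pooled, barcoded VchCAST (Tn6677) mini-transposon donor libraries; each variable transposon-end sequence sits in a fixed pDonor mini-transposon context (10-bp barcode and cargo not included). Left- or right-end libraries were co-transformed with pEffector (TniQ-Cascade, TnsABC, lacZ crRNA, T7, 0.1 mM IPTG) into E. coli BL21(DE3) and grown 18 h at 37 C. T-LR and T-RL junction amplicons were sequenced; output/input barcode fold change was normalised to the mean of four wild-type barcodes and log2-transformed. Two biological replicates; zero-count/undetected variants carry floor values (-10 / -15), censored here. Barcode uncoupling by PCR recombination adds noise.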

[2] = system: VchCAST RNA-guided transposition machinery (E. coli BL21(DE3) host, lacZ target); assay: relative integration efficiency (T-LR orientation) vs wild-type transposon end (log2 (normalized fold change)); transposon end mutated: right end (5 bp flank + 75 bp right end); higher = more efficient transposition
Description: as §1

Row | Sequence | relative integration efficiency (log2) [1] | relative integration efficiency (log2) [2]
1 | ACATTAGTTGATACAACCATAAAATGATAATTACACCCATAAATTGATCATTATCACACCCAATTTAACTATAACGCTCTGATCATAGTCAGACCAACATTGCTACGACCCGTATTCGCACCGACAC | -7.38 ± 0.13 | -5.7 ± 0.14
2 | ACATTGGTCGATACAACCATAAAATGATAATTACACCCATAAATTCATAATTATCACACCCAATTTAACTATAACGCTCTGATCATAGTCAGACCAACATTGCTACGACCCGTATTCGCACCGACAC | -7.939 ± 0.019 | -7.44 ± 1.2
3 | ACATTGGTCGATACAACCATAAAATGATAATTACACCCATAAATTCATCATTATCACACCCAATTTAACTATAACGCTCTGATCATAGTCAGACCAACATTGCTACGACCCGTATTCGCACCGACAC | -7.035 ± 0.062 | -5.19 ± 1.2
4 | ACATTGGTCGATACAACCATAAAATGATAATTACACCCATAAATTGATAATTATCACACCCAATTTAACTATAACGCTCTGATCATAGTCAGACCAACATTGCTACGACCCGTATTCGCACCGACAC | -7.79 ± 0.62 | -5.26 ± 0.85
5 | ACATTGGTCGATACAACCATAAAATGATAATTACACCCATAAATTGATCATTATCACACCCAATTTAACTATAACGCTCTGATCATAGTCAGACCAACATTGCTACGACCCGTATTCGCACCGACAC | -7.023 ± 0.019 | -5.922 ± 0.042
6 | ACATTGGTGGATACAACCATAAAATGATAATTACACCCATAAATGGATAATTATCACACCCAATTTAACTATAACGCTCTGATCATAGTCAGACCAACATTGCTACGACCCGTATTCGCACCGACAC | -7.53 ± 0.13 | -5.04 ± 0.46
7 | ACATTGGTGGATACAACCATAAAATGATAATTACACCCATAAATGGATCATTATCACACCCAATTTAACTATAACGCTCTGATCATAGTCAGACCAACATTGCTACGACCCGTATTCGCACCGACAC | -7.25 ± 0.2 | -6.75 ± 1
8 | ACATTGGTGGATACAACCATAAAATGATAATTACACCCATAAATTCATAATTATCACACCCAATTTAACTATAACGCTCTGATCATAGTCAGACCAACATTGCTACGACCCGTATTCGCACCGACAC | -6.19 ± 0.92 | -4.36 ± 0.31
9 | ACATTGGTGGATACAACCATAAAATGATAATTACACCCATAAATTCATCATTATCACACCCAATTTAACTATAACGCTCTGATCATAGTCAGACCAACATTGCTACGACCCGTATTCGCACCGACAC | -7.11 ± 0.38 | -4.79 ± 0.16
10 | ACATTGGTGGATACAACCATAAAATGATAATTACACCCATAAATTGATCATTATCACACCCAATTTAACTATAACGCTCTGATCATAGTCAGACCAACATTGCTACGACCCGTATTCGCACCGACAC | -6.97 ± 0.42 | -6.549 ± 0.042
11 | ACATTGGTTCATACAACCATAAAATGATAATTACACCCATAAATGGATAATTATCACACCCAATTTAACTATAACGCTCTGATCATAGTCAGACCAACATTGCTACGACCCGTATTCGCACCGACAC | -7.74 ± 0.3 | -5.92 ± 3.5
12 | ACATTGGTTCATACAACCATAAAATGATAATTACACCCATAAATTCATAATTATCACACCCAATTTAACTATAACGCTCTGATCATAGTCAGACCAACATTGCTACGACCCGTATTCGCACCGACAC | -6.669 ± 0.029 | -6.28 ± 2.6
13 | ACATTGGTTCATACAACCATAAAATGATAATTACACCCATAAATTCATCATTATCACACCCAATTTAACTATAACGCTCTGATCATAGTCAGACCAACATTGCTACGACCCGTATTCGCACCGACAC | -7.13 ± 0.28 | -6.18 ± 1.9
14 | ACATTGGTTCATACAACCATAAAATGATAATTACACCCATAAATTGATAATTATCACACCCAATTTAACTATAACGCTCTGATCATAGTCAGACCAACATTGCTACGACCCGTATTCGCACCGACAC | -7.42 ± 0.14 | -4.38 ± 1.6
15 | ACATTGGTTGATACAACCATAAAATGATAATTACACCCATAAATGGATAATTATCACACCCAATTTAACTATAACGCTCTGATCATAGTCAGACCAACATTGCTACGACCCGTATTCGCACCGACAC | -7.99 ± 0.69 | -5.61 ± 0.44
16 | ACATTGGTTGATACAACCATAAAATGATAATTACACCCATAAATGGATCATTATCACACCCAATTTAACTATAACGCTCTGATCATAGTCAGACCAACATTGCTACGACCCGTATTCGCACCGACAC | -7.55 ± 0.43 | -5.25 ± 0.34
17 | ACATTGGTTGATACAACCATAAAATGATAATTACACCCATAAATTCATAATTATCACACCCAATTTAACTATAACGCTCTGATCATAGTCAGACCAACATTGCTACGACCCGTATTCGCACCGACAC | -6.39 ± 0.064 | -5.532 ± 0.042

Row | Sequence | relative integration efficiency (log2) [1] | relative integration efficiency (log2) [2]
18 | ACATTGGTTGATACAACCATAAAATGATAATTACACCCATAAATTCATCATTATCACACCCAATTTAACTATAACGCTCTGATCATAGTCAGACCAACATTGCTACGACCCGTATTCGCACCGACAC | -7.43 ± 0.34 | -5.884 ± 0.042
19 | ACATTGGTTGATACAACCATAAAATGATAATTACACCCATAAATTGATCATTATCACACCCAATTTAACTATAACGCTCTGATCATAGTCAGACCAACATTGCTACGACCCGTATTCGCACCGACAC | -7.17 ± 0.13 | -6.54 ± 2
20 | ACATTGTTTGATACAACCATAAAATGATAATTACACCCATAAATTGATAATTATCACACCCATAAATTGATATTGCCTCTGATCATAGTCAGACCAACATTGCTACGACCCGTATTCGCACCGACAC | -6.33 ± 0.24 | -4.94 ± 0.3
21 | ACATTTCATGATACAACCATAAAATGATAATTACACCCATAAATTGATAATTATCACACCCATAAATTGATATTGCCTCTGATCATAGTCAGACCAACATTGCTACGACCCGTATTCGCACCGACAC | -4.85 ± 0.79 | -5.68 ± 0.91
22 | ACATTTCTCGATACAACCATAAAATGATAATTACACCCATAAATGGATAATTATCACACCCAATTTAACTATAACGCTCTGATCATAGTCAGACCAACATTGCTACGACCCGTATTCGCACCGACAC | -1.99 ± 0.23 | 0.276 ± 0.061
23 | ACATTTCTCGATACAACCATAAAATGATAATTACACCCATAAATGGATCATTATCACACCCAATTTAACTATAACGCTCTGATCATAGTCAGACCAACATTGCTACGACCCGTATTCGCACCGACAC | -2.3 ± 0.27 | 0.0432 ± 0.045
24 | ACATTTCTCGATACAACCATAAAATGATAATTACACCCATAAATTCATAATTATCACACCCAATTTAACTATAACGCTCTGATCATAGTCAGACCAACATTGCTACGACCCGTATTCGCACCGACAC | -1.95 ± 0.18 | 0.496 ± 0.27
25 | ACATTTCTCGATACAACCATAAAATGATAATTACACCCATAAATTCATCATTATCACACCCAATTTAACTATAACGCTCTGATCATAGTCAGACCAACATTGCTACGACCCGTATTCGCACCGACAC | -3.05 ± 0.46 | 0.303 ± 0.055
26 | ACATTTCTCGATACAACCATAAAATGATAATTACACCCATAAATTGATAATTATCACACCCAATTTAACTATAACGCTCTGATCATAGTCAGACCAACATTGCTACGACCCGTATTCGCACCGACAC | -1.57 ± 0.34 | 1 ± 0.028
27 | ACATTTCTCGATACAACCATAAAATGATAATTACACCCATAAATTGATCATTATCACACCCAATTTAACTATAACGCTCTGATCATAGTCAGACCAACATTGCTACGACCCGTATTCGCACCGACAC | -1.71 ± 0.54 | 1.36 ± 0.048
28 | ACATTTCTGGATACAACCATAAAATGATAATTACACCCATAAATGGATAATTATCACACCCAATTTAACTATAACGCTCTGATCATAGTCAGACCAACATTGCTACGACCCGTATTCGCACCGACAC | -2.35 ± 0.26 | -0.444 ± 0.28
29 | ACATTTCTGGATACAACCATAAAATGATAATTACACCCATAAATGGATCATTATCACACCCAATTTAACTATAACGCTCTGATCATAGTCAGACCAACATTGCTACGACCCGTATTCGCACCGACAC | -3.09 ± 0.37 | -0.629 ± 0.35
30 | ACATTTCTGGATACAACCATAAAATGATAATTACACCCATAAATTCATAATTATCACACCCAATTTAACTATAACGCTCTGATCATAGTCAGACCAACATTGCTACGACCCGTATTCGCACCGACAC | -3.39 ± 0.26 | -0.65 ± 0.075
31 | ACATTTCTGGATACAACCATAAAATGATAATTACACCCATAAATTCATCATTATCACACCCAATTTAACTATAACGCTCTGATCATAGTCAGACCAACATTGCTACGACCCGTATTCGCACCGACAC | -3.59 ± 0.54 | -0.104 ± 0.069
32 | ACATTTCTGGATACAACCATAAAATGATAATTACACCCATAAATTGATAATTATCACACCCAATTTAACTATAACGCTCTGATCATAGTCAGACCAACATTGCTACGACCCGTATTCGCACCGACAC | -1.94 ± 0.42 | 0.495 ± 0.035
33 | ACATTTCTGGATACAACCATAAAATGATAATTACACCCATAAATTGATCATTATCACACCCAATTTAACTATAACGCTCTGATCATAGTCAGACCAACATTGCTACGACCCGTATTCGCACCGACAC | -2.77 ± 0.4 | 0.307 ± 0.3
34 | ACATTTCTTCATACAACCATAAAATGATAATTACACCCATAAATGGATAATTATCACACCCAATTTAACTATAACGCTCTGATCATAGTCAGACCAACATTGCTACGACCCGTATTCGCACCGACAC | -4.17 ± 0.17 | -2.86 ± 0.049
